Results as given in the supplement of paper PMC7125110.
± gives the standard error. This sample holds only a part of the variants without activity.

B1: glmS ribozyme (parent)
chain: AUAAAAGCGCCAGAACUACAGAAAUGUAGUUGACGAGGAGGAGGUUUAUCGAAUUUUCGGCGGAUGCCUCCAAA

How the values were obtained:
Conditions in all cases: with glucosamine-6-phosphate
[1] = variants of: B1; test: self-cleavage kobs at 40 uM GlcN6P; higher = faster cleavage; RNA array
How it was run: (§1)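 On sequenced MiSeq chips, barcoded ribozyme variants were made in situ by E. coli RNA polymerase and followed at 37 °C through a hybridised Cy3 probe. Glucosamine-6-phosphate was flowed in at 40 μM to 10 mM in HEPES/KCl/Mg(OAc)2 buffer. Exponential fits to normalised per-tile medians gave kobs, and weighted Michaelis–Menten fits gave kcat and KM.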

[2] = variants of: B1; test: self-cleavage kobs at 160 uM GlcN6P; higher = faster cleavage; RNA array
How it was run: as §1

[3] = variants of: B1; test: self-cleavage kobs at 640 uM GlcN6P; higher = faster cleavage; RNA array
How it was run: as §1

[4] = variants of: B1; test: self-cleavage kobs at 10000 uM GlcN6P; higher = faster cleavage; RNA array
How it was run: as §1

[5] = variants of: B1; test: self-cleavage kobs at 2500 uM GlcN6P; higher = faster cleavage; RNA array
How it was run: as §1

Row | Variant | self-cleavage kobs at 40 uM GlcN6P [1] [s⁻¹] | self-cleavage kobs at 160 uM GlcN6P [2] [s⁻¹] | self-cleavage kobs at 640 uM GlcN6P [3] [s⁻¹] | self-cleavage kobs at 10000 uM GlcN6P [4] [s⁻¹] | self-cleavage kobs at 2500 uM GlcN6P [5] [s⁻¹]
1 | AUAAAAGCGCCAGAACUACAGAAAUGUAGUAGACGAGGAGGAGGUUUAUCGAAUUUUCGGUGGAUGCCUCCAAA [U31A C61U] | < 1e-05 | < 1e-05 | < 1e-05 | – | –
2 | AUAAAAGCGCCAGAACUACAGAAAUGUAGGUGACGAGGAGGAGGUUUAUCGCAUUUUCGGCUGAUGCCUCCAAA [U30G A52C G62U] | < 1e-05 | – | – | < 1e-05 | –
3 | AUAAAAGCGCCAGAACUACAGAAAUGUAGUCGACGAGGAUGAGUUGUAUCGAAUUUUCGGCGGAUGCCUCCAAA [U31C G40U G44U U46G] | < 1e-05 | – | – | – | –
4 | AUAAAAGCGCCAGAACUACAGAAAUGUAGUAGACGAGGAGGAGGUUUAUCGAAUUUUCCGCGGAUGCCUCCAAA [U31A G59C] | < 1e-05 | < 1e-05 | < 1e-05 | < 1e-05 | < 1e-05
5 | AUAAAAGCGCCAGAACUACAGAAAUGUAGUCGACGAGGAAGAGGUUUAUCGAAUUUUCUGCGGAUGCCUCCAAA [U31C G40A G59U] | < 1e-05 | – | < 1e-05 | < 1e-05 | < 1e-05
6 | AUAAAAGCGCCAGAACUACAGAAAUGUAGUAGACGAGGAGGAGGUUUAUCGAAUUUUCGGCGGACGCCCCCAAA [U31A U65C U69C] | < 1e-05 | – | – | – | –
7 | AUAAAAGCGCCAGAACUACAGAAAUGUAGUCGACGAGGGGGAGGUUUAUUGAAGUUUAGCCUGAUGCCUCCAAA [U31C A39G C50U U54G C58A G60C G62U] | < 1e-05 | – | – | < 1e-05 | –
8 | AUAAAAGCGCCAGAACUACAGAAAUGUAGUAGACGAGGAGGAGGUUUAUCGAAUUUUCGGCGGAUGCCCCCAAA [U31A U69C] | 0.000182 ± 6.5e-05 | 0.000243 ± 4.5e-05 | 0.000515 ± 0.00012 | 0.0039 ± 0.0012 | –
9 | AUAAAAGCGCCAGAACUACAGAAAUGUAGUCGACGGGGGGGAGGUUCAUCGAAUUUUCGGCGGAUGCCUCCAAA [U31C A36G A39G U47C] | < 1e-05 | – | – | < 1e-05 | –
10 | AUAAAAGCGCCAGAACUACAGAAAUGUAGGUGACGAGGAGGAGGUUUGUCGAAUUUUCGGCGGAUGCCUCUAAA [U30G A48G C71U] | < 1e-05 | – | < 1e-05 | – | –
11 | AUAAAAGCGCCAGAACUACAGAAAUGUAGUAGACGAGGAGGAGGUUUAUCGAAUCUUCGGCGCAUGGCUCCAAA [U31A U55C G63C C67G] | < 1e-05 | – | – | < 1e-05 | < 1e-05
12 | AUAAAAGCGCCAGAACUACAGAAAUGUAGUAGACGAGGAGGGGGUUUAUCAAAUUUUCGGCGGAUGCCUGCAAA [U31A A42G G51A C70G] | < 1e-05 | – | – | < 1e-05 | –
13 | AUAAAAGCGCCAGAACUACAGAAAUGUAGUAGACGAGGAGGAGGUUUAUCGAAUUUUCGGCGGAUGACUCCAAA [U31A C67A] | 0.000109 ± 1.4e-05 | 0.000473 ± 8.4e-05 | 0.000764 ± 0.00012 | 0.00388 ± 0.00061 | –
14 | AUAAAAGCGCCAGAACUACAGAAAUGUAGUCGACAAGGAGGAGGUUUAUCGAAUUUUCGGCGGAUGCCUCCAAA [U31C G35A] | < 1e-05 | < 1e-05 | < 1e-05 | < 1e-05 | < 1e-05
15 | AUAAAAGCGCCAGAACUACAGAAAUGUAGUAGACGUGGAGGAGGUUUAUCGAAUUUUCGGCGGAUGCCUCCAAA [U31A A36U] | < 1e-05 | < 1e-05 | < 1e-05 | < 1e-05 | < 1e-05
16 | AUAAAAGCGCCAGAACUACAGAAAUGUAGUCGACGAGGUGGAGGUUUAUCGAACUUUCGGCGGAUGCCUCUAAA [U31C A39U U54C C71U] | 5.15e-05 ± 1.1e-05 | – | – | 0.00213 ± 0.00023 | 0.000671 ± 0.00024
17 | AUAAAAGCGCCAGAACUACAGAAAUGUAGUCGACGAGGAGGAGGUUUAUCAAAUUUUCGGCGGAUGCCUCCAAA [U31C G51A] | < 1e-05 | – | < 1e-05 | < 1e-05 | < 1e-05
18 | AUAAAAGCGCCAGAACUACAGAAAUGUAGUAGACGAGGAGGAGGUUUAACGAAUUUUCGGUGGAUGCCUGCAAA [U31A U49A C61U C70G] | < 1e-05 | – | – | – | –
19 | AUAAAAGCGCCAGAACUACAGAAAUGUAGUAGACGAGGAGGACGUUUAUCGAAGUUUCGGCGGAUGCCUCCAAA [U31A G43C U54G] | < 1e-05 | – | – | < 1e-05 | –
20 | AUAAAAGCGCCAGAACUACAGAAAUGUAGGUGACGAGGAGGAGGUUUAUCGAAUUUUCCGCGGAUGCCUCCAAA [U30G G59C] | < 1e-05 | – | < 1e-05 | < 1e-05 | –
21 | AUAAAAGCGCCAGAACUACAGAAAUGUAGUAGACGAGGAGGAGGUAUAUCGAAUUUUCGGUGGAUGCCUUCAAA [U31A U46A C61U C70U] | < 1e-05 | – | – | – | –
22 | AUAAAAGCGCCAGAACUACAGAAAUGUAGGUGACGAGGAGGAGGUUUAUCGAAUUUUCGGCUGAUGCCUCCAAA [U30G G62U] | < 1e-05 | – | < 1e-05 | < 1e-05 | –
23 | AUAAAAGCGCCAGAACUACAGAAAUGUAGGUGACGAGGAGGAGUUUUAUCGAAUUUUCGGCGGAUGCCUCCAAA [U30G G44U] | < 1e-05 | < 1e-05 | – | 4.23e-05 ± 1.3e-05 | –
24 | AUAAAAGCGCCAGAACUACAGAAAUGUAGUAGACGACGAGGAGGUUUAUCGAAUUUUCGGCGGAUGCCGCCAAA [U31A G37C U69G] | < 1e-05 | – | – | – | –
25 | AUAAAAGCGCCAGAACUACAGAAAUGUAGUAGACGAGGAGGAGCUUUAUCGAAUUUUCGGCGGAUGCCUCCAAA [U31A G44C] | < 1e-05 | – | – | 6.05e-05 ± 1.8e-05 | –
26 | AUAAAAGCGCCAGAACUACAGAAAUGUAGUAGACGAGGAGGAGGUUUAUGGAAUUUUAGGCGGAUGCCUCCAAA [U31A C50G C58A] | 5.39e-05 ± 1.9e-05 | – | 0.00134 ± 0.00032 | – | 0.000414 ± 0.00012
27 | AUAAAAGCGCCAGAACUACAGAAAUGUAGGUGACGAGGAGGAAGUUUAUCGAAUUUUCGGCGGAUGCCUCCAAA [U30G G43A] | < 1e-05 | < 1e-05 | – | – | –
28 | AUAAAAGCGCCAGAACUACAGAAAUGUAGGUAACCAGGAGGCGGUUUAUCGAAUUUUCGGCGGAUGCCUCCAAA [U30G G32A G35C A42C] | < 1e-05 | – | – | – | –
29 | AUAAAAGCGCCAGAACUACAGAAAUGUAGUCGACGAGGAGGAGGUUUGUCGAAUUUUCGGCGGAUGCCUCCAAA [U31C A48G] | < 1e-05 | < 1e-05 | – | – | –
